Measured values as given in patent US5523287A, “Thrombin-inhibitory protein from assassin bugs” (BASF Aktiengesellschaft, priority 1991, dated 1996).

B1: novel protein: Thrombin-inhibitory protein isolated from assassin bugs (Rhodnius prolixus); contains 103 amino acids of SEQ ID NO: 3, N-terminus SEQ ID NO: 1 (protein)
chain: EGGEPCACPHALHRVCGSDGETYSNPCTLNCAKFNGKPELVKVHDGPCEPDEDEDVCQECDGDEYKPVCGSDDITYDNNCRLECASISSSPGVELKHEGPCRT

What was measured:
[1] = Determination of the isoelectric point by isoelectric focusing; assay type: physicochemical; conditions: Ampholine PAGplate pH 3.5-9.5, located by thrombin inhibition assay
Protocol: The determination was carried out with an LKB Multiphor 2117 (horizontal system) and an LKB 2103 power supply. Precast gels were employed (Pharmacia Ampholine PAGplate pH 3.5-9.5). The standard proteins employed were amyloglucosidase, pH 3.5; soybean trypsin inhibitor, pH 4.55; β-lactoglobulin A, pH 5.2; bovine carbonic anhydrase, pH 5.85; human carbonic anhydrase, pH 6.55; horse myoglobin, pH 6.85 and 7.35; lentil lectin, pH 8.15, 8.45, 8.65 and trypsinogen, pH 9.3.
Focusing conditions: 1500 volts, 30 watts. Buffers:
cathode 1M sodium hydroxide solution
The plates were prefocused for 30 minutes to produce a pH gradient. The samples were loaded onto filter disks which lay on the gel. Focusing was continued for 30 minutes, the filter disks were removed and, after a further 30 minutes, focusing was stopped. The gels were immediately cut into 2 mm slices and transferred into distilled water. The protein eluted out of the gel slices overnight. The location of the thrombin inhibitor was determined by a thrombin inhibition assay. The pH can also be determined directly using a pH electrode.

[2] = system: Thrombin; test: Determination of the inhibition of thrombin by the inhibitor (Chromozym TH optical assay); assay type: biochemical; conditions: in vitro enzyme assay
Protocol: The purification of the protein can be monitored by a thrombin activity assay. It is expedient to use an optical assay in which a chromogenic substrate, for example Chromozym T, is converted by thrombin. The fractions containing the novel protein can be identified by their thrombin-inhibiting action on addition to this optical assay.
Thrombin (Boehringer Mannheim) was dissolved to a final concentration of 25 mU/ml in phosphate-buffered saline (PBS) ([…], […], 0.144 g/l sodium phosphate, 0.2 g/l potassium phosphate, pH 7.5).
Chromozym TH (Boehringer Mannheim) was dissolved in 20 ml of H2 O per vial.
50 μl of thrombin solution and 100 μl of Chromozym plus 25 μl of sample or buffer were placed in the wells of a microtiter plate. The absorption at 405 nm was measured at 37° C. immediately thereafter at time 0 and after 30 minutes.
When the sample was deeply colored another control without thrombin was treated as described above.
The activity of thrombin liberates a dye which absorbs at 405 nm from the chromogenic substrate. Inhibition of the thrombin by a thrombin inhibitor is evident from a smaller increase in the absorption at 405 nm and was quantified using a calibration plot.

[3] = system: Thrombin; test: Binding to affinity column with immobilized thrombin; conditions: immobilized thrombin on Sepharose
Protocol: The combined active fractions were loaded onto an affinity column with immobilized thrombin (diameter 1.5 cm, height 6.5 cm, volume 11.5 ml, 60 ml/h). The column was prepared as in Example 3.
The column was equilibrated with 20 mM sodium phosphate pH 7.5. After the protein solution had been loaded onto the column it was washed with 10 column volumes of equilibration buffer until the absorption at 280 nm decreased to zero.
It was then washed with 0.5M NaCl, 20 mM sodium phosphate buffer pH 7.5. This removed non-specifically adsorbed material.
Protein specifically bound to thrombin was eluted with 0.1M glycine, 0.5M NaCl pH 2.8. The column was then immediately readjusted to pH 7.5 with phosphate buffer.
2 g of CNBr-activated Sepharose (Pharmacia) were washed with 200 ml of 1 mM HCl on a suction funnel. The gel was taken up in 100 mM NaHCO3, 500 mM NaCl pH 8.3 and immediately mixed with 10,000 units of thrombin (Sigma) in 100 mM NaHCO3, 500 mM NaCl, pH 8.3.
The solution was gently shaken at 4° C. for 24 hours.
The gel material was allowed to settle and then washed with 100 mM NaHCO3, 500 mM NaCl, pH 8.3. The Sepharose was then incubated with 100 mM NaHCO3, 500 mM NaCl, 1M ethanolamine pH 8.3 for 2 hours.
To remove unbound thrombin, before use the gel material is washed once more in the column with 20 column volumes of PBS pH 7.4.

Molecule	isoelectric point [1]	inhibition of the biological activity of thrombin [2]	isoelectric point ([1]; listed as novel inhibitor) [pH]	binding to thrombin affinity column [3]
hirudin [reference compound]	≤ 3.5 pH	–	–	–
B1	3.7-4.7 pH	inhibits the biological activity of thrombin	4.2±0.5	binds specifically to a thrombin affinity column
